Measured values from patent US6087166.

Key:
Assay in all cases: cell_activity
[1] = system: TetR-GFY (tTA4) (/ HSV fusion); settings: relative to tTA; -Tc 37217, +Tc 25
[2] = system: TetR-FF (tTA3) (/ HSV fusion); settings: relative to tTA; -Tc 102828, +Tc 27
[3] = system: TetR-VP16 (tTA) (/ HSV fusion); settings: luciferase -Tc 265410, +Tc 20
[4] = system: TetR-FG (tTA7) (/ HSV fusion); settings: relative to tTA; -Tc 88, +Tc 24
[5] = system: TetR-GF (tTA6) (/ HSV fusion); settings: relative to tTA; -Tc 1500, +Tc 28
[6] = system: TetR-FGY (tTA5) (/ HSV fusion); settings: relative to tTA; -Tc 12080, +Tc 16
[7] = system: TetR-FFF (tTA2) (/ HSV fusion); settings: relative to tTA; -Tc 259556, +Tc 33
[8] = system: TetR-FFFF (tTA1) (/ HSV fusion); settings: relative to tTA; -Tc 607264, +Tc 33

## PhCMV*-1 promoter (tet operators, luciferase reporter in HeLa X1/6)
[1]
  activity: 14%
[2]
  activity: 39%
[3]
  activity: 100%
[4]
  activity: 0.03%
[5]
  activity: 0.6%
[6]
  activity: 4.6%
[7]
  activity: 98%
[8]
  activity: 230%
